From the RNAGym collection of RNA variant scans (doi:10.1073/pnas.2313332121) come the findings set out here.

Variants at the floor of the assay were thinned out.

First the molecules themselves.
B1: TPR 5TU (parent)
chain: GGAUCUUCUCGAUCUAACAAAAAAGACAAAUCUGCCACAAAGCUUGAGAGCAUCUUCGGAUGCAGAGGCGGCAGCCUUCGGUGGCGCGAUAGCGCCAACGUUCUCAACUAUGACACGCAAAACGCGUGCUCCGUUGAAUGGAGUUUAUCAUG

Variants of B1 are the subject of this data set. Description: polymerase ribozyme fitness, log enrichment relative to wild type (log ratio); higher = more active; in vitro selection for triplet polymerase activity. In short, it runs like this:
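Input and output libraries were sequenced on Illumina after a single in vitro selection round, run in triplicate on PCR-built, transcribed mutant libraries of each subunit of a heterodimeric triplet polymerase ribozyme. Selection annealed libraries to a biotinylated primer, the partner subunit and triplets, incubated them frozen at −7 °C, then gel-excised extended constructs for streptavidin-bead capture and RT-PCR. Genotypes with ≥10 input reads and ≥1 read per output were kept. Fitness is the logarithm, taken in base 2, of genotype enrichment divided by wild-type enrichment, using inverse-variance-weighted replicate averages.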
In the case of A12C C32G G84U, the “polymerase ribozyme fitness (log ratio)” value is not above -4.2.
Regarding A12C C18G A40U C123U G136U, the “polymerase ribozyme fitness (log ratio)” value is -3.09.
Take A12G C85A: the “polymerase ribozyme fitness (log ratio)” value is -1.31.
In the case of A12C A22G C32G C51G A60U U77A G81C G128A U148C it was not above -4.2; in that of A12C C14U A22C U61G G65A G86A C93U U134G, not above -4.2; in that of A12G G80C G81C C118U U135A, -1.66.
Consider A12C U101G A137G, for which the “polymerase ribozyme fitness (log ratio)” value was -0.888.
In the case of A12U C27U A73U C96G A97U A107G it was not above -4.2; in that of G11U U56A A64G C118U A121U, not above -4.2.
Then A12G G83U G92U A142G, with -2.93; and A12G A21C C32G G50U C125G, with not above -4.2; and A12G A23U C85G A150G, with not above -4.2.
Then A12U A41U G65C G70C C79U, with not above -4.2; and A12C G86C A106U A115U U144A, with not above -4.2.
In the case of A12G A17G C93U A120G, the “polymerase ribozyme fitness (log ratio)” value is -0.897.
In the case of G11U U53G C57G G59U G94A it was -3.74.
Then A12C G34U G50U G88C A98U C125A, with -4.18.
A12G C54U U61A C72A C96U A98U C99A A142C: the “polymerase ribozyme fitness (log ratio)” value is not above -4.2.
In the case of G11U G68U A120U C125U it was not above -4.2.
Take A12C C14G A26U A49C G59A C131A: the “polymerase ribozyme fitness (log ratio)” value is not above -4.2.
For the variant A12G U45A A52U C93A C118A A120U U145G, the “polymerase ribozyme fitness (log ratio)” value was not above -4.2.
In the case of A12G C51G A52C C63G it was not above -4.2; in that of A12G U13A A19C G92C C99U G124C U148G G152U, not above -4.2; in that of G11U G25C G71C C95G C103A C116G, not above -4.2.
With A12C A21G C51U G83U, the “polymerase ribozyme fitness (log ratio)” value was -2.15.
Then A12U A23C C54U C116G A147C U151A, with not above -4.2.
Then A12C C14A A29G G81A A91G C93U C103A, with not above -4.2; and A12G G83A G126U U134C U148G, with not above -4.2.
A12G C14G A52C G67A G124A A137C: the “polymerase ribozyme fitness (log ratio)” value was not above -4.2.
In the case of A12G C69G A89U C96G U104A it was -2.98.
On to A12C G50C G65A C76G G83U, for which the “polymerase ribozyme fitness (log ratio)” value is not above -4.2.
In the case of A12G A29U U31A G67U C72A G92U A137G it was not above -4.2; in that of A12C C27U G34U C63U C93A, -4.1; in that of A12G U77A C96A A98G, not above -4.2.
Regarding G11U U55G A60G G67A C93U, the “polymerase ribozyme fitness (log ratio)” value is not above -4.2.
Then A12C A21U A64C G84U U127C A138U, with not above -4.2; and A12G U13C C96A, with -0.909.
Consider A12G A26G G94C C95A A137G, for which the “polymerase ribozyme fitness (log ratio)” value was -4.
In the case of A12G A40C A41G U56A U82G C99A A113C C125U it was not above -4.2; in that of G11U A40C G70C C103G, not above -4.2.
In the case of A12G U56A A60U G65U A91U C96G A120U it was not above -4.2.
Then A12G U45G A49U A60G U61G A107U U127G, with not above -4.2; and A12C A26C G92C, with -3.66.
For A12U C18U A19G U56G A60U C76G C108U C114G, the “polymerase ribozyme fitness (log ratio)” value is not above -4.2.
In the case of G11U A73U G81A G83C G86U G126C G136C it was not above -4.2; in that of A12G C38A C96G, -0.0836.
Then A12G C54A G86C C87U G126A, with not above -4.2; and A12C A66G A91U, with not above -4.2.
Then A12C G58C G94C, with -1.43.
As for A12U A20U A21C C87G A142G, the “polymerase ribozyme fitness (log ratio)” value is not above -4.2.
Regarding A12G U145A, the “polymerase ribozyme fitness (log ratio)” value came out at 1.33.
Then A12G C51U, with 0.193.
Take A12C U33A G48C U127G G140C: the “polymerase ribozyme fitness (log ratio)” value was not above -4.2.
As for A12U A20G U56A C75G A121G, the “polymerase ribozyme fitness (log ratio)” value was not above -4.2.
In the case of A12G U78C U139G it was -1.31; in that of A12U A24C C63G C85U C87A G94C A107G G126A A137G G141U, not above -4.2.
Then A12C U55G A97G C105U, with -3.12; and G11U C18G G58C A60C U78C G83A C96U A115C, with not above -4.2.
Turning to A12C C38U C54U C76U U77G G84A U127A A138U, the “polymerase ribozyme fitness (log ratio)” value was not above -4.2.
In the case of A12G G74C, the “polymerase ribozyme fitness (log ratio)” value was -3.9.
Turning to A12C A29U G68C A73C G80U G84C, the “polymerase ribozyme fitness (log ratio)” value is not above -4.2.
As for A12G A21U C27A G48C A49C C51A G84A C129A, the “polymerase ribozyme fitness (log ratio)” value is not above -4.2.
Then A12C G62A A122U, with -0.923.
With A12G C54U C69G U145G, the “polymerase ribozyme fitness (log ratio)” value was -4.06.
Then A12C C129G, with -3.9; and A12C A24G C85U C95U A120G, with not above -4.2; and G11U G34A G50A C85U U90C G143A, with not above -4.2.
Then A12U A22G A29C G42U C87U C93A, with not above -4.2.
Consider A12G G59C, for which the “polymerase ribozyme fitness (log ratio)” value was determined as 0.244.
In the case of A12U A41C G83C C118G G133U it was not above -4.2.
Consider A12U A28U U55G A66C G74C G80C C85A C87U C96U, for which the “polymerase ribozyme fitness (log ratio)” value was not above -4.2.
Regarding A12G C14U G50A U53A C95U C99A C116U A150U, the “polymerase ribozyme fitness (log ratio)” value is -4.15.
In the case of A12U A17U A28C C43G C103G it was not above -4.2.
On to A12U A16C C57G G81A U104G A115G, for which the “polymerase ribozyme fitness (log ratio)” value is not above -4.2.
On to A12U A20U C54U A73G A91U C99U U146G, for which the “polymerase ribozyme fitness (log ratio)” value is not above -4.2.
In the case of A12G A20G A23U A89G C96U U111C G124C U130G G133C G140A, the “polymerase ribozyme fitness (log ratio)” value was not above -4.2.
In the case of A12U A19G U82C G83A A119U, the “polymerase ribozyme fitness (log ratio)” value is -4.07.
In the case of A12C A39U G59A A91U C93U A150C it was not above -4.2.
In the case of A12G G92A U127A U139A G143A it was not above -4.2.
Then G11U U33G A66C G84A G128U A137C U145A, with not above -4.2; and A12G C57U U61A G68A G70C C87U C96A G133A U148A, with not above -4.2; and A12G C75U C93U U144C, with -0.389.
Consider G11U A37U C87A, for which the “polymerase ribozyme fitness (log ratio)” value was -4.14.
